Series [1] concerns the molecule itself. Nature of the series: negative-stain electron microscopy; purified co-expressed complex at 0.01-0.02 mg/mL in 25 mM HEPES pH 7.5, 150 mM NaCl, 1 mM TCEP, 10% glycerol; uranyl acetate stain; 2D classes and 3D map (C1, ~22 Å).
For series [2], the target named is T1, human glycogen synthase 1 (GS1) H610E (human, UniProt P13807 1-737, H610E, phosphorylation at S8, S641 and S641/S645 probed by immunoblot (Fig. 4b)).
T1 construct: glycogen synthase 1 (muscle), human, encoded by GYS1, cDNA NM 002103; also called GS H610E; not shown: His6, N-terminal, cleaved
T1 sequence (looked up): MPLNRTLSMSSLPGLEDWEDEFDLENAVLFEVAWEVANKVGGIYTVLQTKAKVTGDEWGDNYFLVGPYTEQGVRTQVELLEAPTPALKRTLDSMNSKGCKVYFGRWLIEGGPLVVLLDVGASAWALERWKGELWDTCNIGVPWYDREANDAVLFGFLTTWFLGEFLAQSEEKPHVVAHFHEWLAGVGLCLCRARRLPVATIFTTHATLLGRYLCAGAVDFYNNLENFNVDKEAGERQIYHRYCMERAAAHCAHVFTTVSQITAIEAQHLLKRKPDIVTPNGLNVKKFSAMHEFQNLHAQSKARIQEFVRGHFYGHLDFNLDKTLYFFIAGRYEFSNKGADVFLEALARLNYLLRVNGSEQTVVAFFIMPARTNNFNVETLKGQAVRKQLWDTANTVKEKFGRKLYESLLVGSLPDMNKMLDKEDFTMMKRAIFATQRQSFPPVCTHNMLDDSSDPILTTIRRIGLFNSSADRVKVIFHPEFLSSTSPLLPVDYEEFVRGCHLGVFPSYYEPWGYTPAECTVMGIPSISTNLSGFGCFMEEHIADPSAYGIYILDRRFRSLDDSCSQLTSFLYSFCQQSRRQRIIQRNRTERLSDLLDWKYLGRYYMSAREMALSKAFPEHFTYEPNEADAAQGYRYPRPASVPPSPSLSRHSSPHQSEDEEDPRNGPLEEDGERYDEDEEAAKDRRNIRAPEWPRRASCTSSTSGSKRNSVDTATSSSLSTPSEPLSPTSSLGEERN
The experiment in a line: co-purification (HisTrap, TEV cleavage, Ni subtraction, Superdex200 gel filtration); GS WT or mutant co-expressed with GN(Y195F) in insect cells, both with N-terminal His6-TEV; lysate loaded on the HisTrap column. The settings on record: partners not purified.

For series [3], the target named is T2, human glycogen synthase 1 (GS1) R588A + R591A (human, UniProt P13807 1-737, R588A | R591A, phosphorylation at S8, S641 and S641/S645 probed by immunoblot (Fig. 4b)).
T2 construct: glycogen synthase 1 (muscle), human, encoded by GYS1, cDNA NM 002103; also called GS R588A + R591A double mutant; not shown: His6, N-terminal, cleaved
T2 sequence (looked up): T1 sequence (looked up) with R588A, R591A, E610H
The description is as above. The settings on record: partners not purified.

For series [4], the target named is T3, human glycogen synthase 1 (GS1) Y600A (human, UniProt P13807 1-737, Y600A, phosphorylation at S8, S641 and S641/S645 probed by immunoblot (Fig. 4b)).
T3 construct: glycogen synthase 1 (muscle), human, encoded by GYS1, cDNA NM 002103; also called GS Y600A; not shown: His6, N-terminal, cleaved
T3 sequence (looked up): T1 sequence (looked up) with Y600A, E610H
The description is as above. The settings on record: partners not purified.

The values below come from article PMC9188544, “Mechanism of glycogen synthase inactivation and interaction with glycogenin” (Nature Communications, 2022).

Residue numbers refer to the chain shown, from its start. Names and notes keep the numbering of the source.

B1: human glycogenin 1 (GN1) Y195F, full length, non-glucosylated (enzyme, UniProt P46976-2 1-333, looked up)
chain: MTDQAFVTLTTNDAYAKGALVLGSSLKQHRTTRRLVVLATPQVSDSMRKVLETVFDEVIMVDVLDSGDSAHLTLMKRPELGVTLTKLHCWSLTQYSKCVFMDADTLVLANIDDLFDREELSAAPDPGWPDCFNSGVFVYQPSVETYNQLLHLASEQGSFDGGDQGILNTFFSSWATTDIRKHLPFIYNLSSISIFSYLPAFKVFGASAKVVHFLGRVKPWNYTYDPKTKSVKSEAHDPNMTHPEFLILWWNIFTTNVLPLLQQFGLVKDTCSYVNVEDVSGAISHLSLGEIPAMAQPFVSSEERKERWEQGQADYMGADSFDNIKRKLDTYLQ
notes: glycogenin 1, human, encoded by GYG1, cDNA NM 001184720, full length; expected ~37.5 kDa; the C-terminal GN34 region is modelled as residues 300-332, which fits the 333-residue isoform; Cloned in pFL (with untagged GS) and in pFastBac (co-infected with His6-TEV-GS WT or mutants); Both carry an N-terminal His6 tag and a cleavable site, so they are treated as one molecule; also called GN(Y195F); GN …
For the molecule B1, the “stoichiometry N” value in series [1] was 2. Besides, the binding result in series [2], in series [3] and in series [4] was “binds” in each case.
